{
  "source": "paper PMC9672952",
  "key": {"[1]": {"molecular_target": "RseP from Enterococcus faecalis V583, without His-tag (Enterococcus faecalis V583) (UniProt Q9RPP2)"}, "[2]": {"molecular_target": "RseP from Enterococcus faecium P21, without His-tag (Enterococcus faecium P21) (UniProt I3U2R6)"}, "[3]": {"molecular_target": "RseP from Staphylococcus haemolyticus, without His-tag (Staphylococcus haemolyticus)"}, "[4]": {"molecular_target": "RseP from Staphylococcus aureus ATCC 14458, without His-tag (Staphylococcus aureus ATCC 14458)"}, "[5]": {"molecular_target": "RseP from Lactococcus lactis IL1403, without His-tag (Lactococcus lactis IL1403)"}, "[6]": {"molecular_target": "RseP from Staphylococcus arlettae LMGT 4134, without His-tag (Staphylococcus arlettae LMGT 4134)"}, "[7]": {"molecular_target": "RseP from Lactiplantibacillus plantarum WCFS1, without His-tag (Lactiplantibacillus plantarum WCFS1)"}, "[8]": {"molecular_target": "RseP from Lactiplantibacillus plantarum WCFS1, C-terminal 6× His-tag (Lactiplantibacillus plantarum WCFS1)", "test": "flow cytometry on cells; noninduced L. plantarum cells expressing the RseP variant, 1 μM FITC-labeled EntK1 in 100 μM triammonium citrate pH 6.5, 20 min, room temperature; median fluorescence intensity relative to cells expressing EfmRseP (rMFI), triplicate"}, "[9]": {"molecular_target": "EfmRseP with substitution P369A (Enterococcus faecium P21) (UniProt I3U2R6)", "test": "flow cytometry on cells; noninduced L. plantarum cells expressing the RseP variant, 1 μM FITC-labeled EntK1 in 100 μM triammonium citrate pH 6.5, 20 min, room temperature; median fluorescence intensity relative to cells expressing EfmRseP (rMFI), triplicate"}, "[10]": {"molecular_target": "EfmRseP with substitution H22A (Enterococcus faecium P21) (UniProt I3U2R6)", "test": "flow cytometry on cells; noninduced L. plantarum cells expressing the RseP variant, 1 μM FITC-labeled EntK1 in 100 μM triammonium citrate pH 6.5, 20 min, room temperature; median fluorescence intensity relative to cells expressing EfmRseP (rMFI), triplicate"}, "[11]": {"molecular_target": "EfmRseP with substitution N364A (Enterococcus faecium P21) (UniProt I3U2R6)", "test": "flow cytometry on cells; noninduced L. plantarum cells expressing the RseP variant, 1 μM FITC-labeled EntK1 in 100 μM triammonium citrate pH 6.5, 20 min, room temperature; median fluorescence intensity relative to cells expressing EfmRseP (rMFI), triplicate"}, "[12]": {"molecular_target": "EfmRseP with substitution D372A (Enterococcus faecium P21) (UniProt I3U2R6)", "test": "flow cytometry on cells; noninduced L. plantarum cells expressing the RseP variant, 1 μM FITC-labeled EntK1 in 100 μM triammonium citrate pH 6.5, 20 min, room temperature; median fluorescence intensity relative to cells expressing EfmRseP (rMFI), triplicate"}, "[13]": {"molecular_target": "Fusion of LpRseP (1–201, 328–425) and EfmRseP (202–327) (Lactiplantibacillus plantarum WCFS1 | Enterococcus faecium P21) (UniProt I3U2R6)", "test": "flow cytometry on cells; noninduced L. plantarum cells expressing the RseP variant, 1 μM FITC-labeled EntK1 in 100 μM triammonium citrate pH 6.5, 20 min, room temperature; median fluorescence intensity relative to cells expressing EfmRseP (rMFI), triplicate"}, "[14]": {"molecular_target": "Fusion of LpRseP (1–171, 326–425) and EfmRseP (172–325) (Lactiplantibacillus plantarum WCFS1 | Enterococcus faecium P21) (UniProt I3U2R6)", "test": "flow cytometry on cells; noninduced L. plantarum cells expressing the RseP variant, 1 μM FITC-labeled EntK1 in 100 μM triammonium citrate pH 6.5, 20 min, room temperature; median fluorescence intensity relative to cells expressing EfmRseP (rMFI), triplicate"}, "[15]": {"molecular_target": "Truncation of EfmRseP (1–39, 139–422) Δ40–138 (Enterococcus faecium P21) (UniProt I3U2R6)", "test": "flow cytometry on cells; noninduced L. plantarum cells expressing the RseP variant, 1 μM FITC-labeled EntK1 in 100 μM triammonium citrate pH 6.5, 20 min, room temperature; median fluorescence intensity relative to cells expressing EfmRseP (rMFI), triplicate"}, "[16]": {"molecular_target": "Fusion of EfmRseP (1–221) and LpRseP (222–425) (Enterococcus faecium P21 | Lactiplantibacillus plantarum WCFS1) (UniProt I3U2R6)", "test": "flow cytometry on cells; noninduced L. plantarum cells expressing the RseP variant, 1 μM FITC-labeled EntK1 in 100 μM triammonium citrate pH 6.5, 20 min, room temperature; median fluorescence intensity relative to cells expressing EfmRseP (rMFI), triplicate"}, "[17]": {"molecular_target": "RseP from Enterococcus faecium P21, C-terminal 6× His-tag (Enterococcus faecium P21) (UniProt I3U2R6)", "test": "flow cytometry on cells; noninduced L. plantarum cells expressing the RseP variant, 1 μM FITC-labeled EntK1 in 100 μM triammonium citrate pH 6.5, 20 min, room temperature; median fluorescence intensity relative to cells expressing EfmRseP (rMFI), triplicate"}, "[18]": {"molecular_target": "EfmRseP with the triple alanine substitution of the HExxH motif (Enterococcus faecium P21) (UniProt I3U2R6)", "test": "flow cytometry on cells; noninduced L. plantarum cells expressing the RseP variant, 1 μM FITC-labeled EntK1 in 100 μM triammonium citrate pH 6.5, 20 min, room temperature; median fluorescence intensity relative to cells expressing EfmRseP (rMFI), triplicate"}, "[19]": {"molecular_target": "EfmRseP with substitution P367A (Enterococcus faecium P21) (UniProt I3U2R6)", "test": "flow cytometry on cells; noninduced L. plantarum cells expressing the RseP variant, 1 μM FITC-labeled EntK1 in 100 μM triammonium citrate pH 6.5, 20 min, room temperature; median fluorescence intensity relative to cells expressing EfmRseP (rMFI), triplicate"}, "[20]": {"molecular_target": "EfmRseP with substitution H18A (Enterococcus faecium P21) (UniProt I3U2R6)", "test": "flow cytometry on cells; noninduced L. plantarum cells expressing the RseP variant, 1 μM FITC-labeled EntK1 in 100 μM triammonium citrate pH 6.5, 20 min, room temperature; median fluorescence intensity relative to cells expressing EfmRseP (rMFI), triplicate"}, "[21]": {"molecular_target": "EfmRseP with substitution E19A (Enterococcus faecium P21) (UniProt I3U2R6)", "test": "flow cytometry on cells; noninduced L. plantarum cells expressing the RseP variant, 1 μM FITC-labeled EntK1 in 100 μM triammonium citrate pH 6.5, 20 min, room temperature; median fluorescence intensity relative to cells expressing EfmRseP (rMFI), triplicate"}, "[22]": {"molecular_target": "Fusion of EfmRseP (1–325) and LpRseP (326–425) (Enterococcus faecium P21 | Lactiplantibacillus plantarum WCFS1) (UniProt I3U2R6)", "test": "flow cytometry on cells; noninduced L. plantarum cells expressing the RseP variant, 1 μM FITC-labeled EntK1 in 100 μM triammonium citrate pH 6.5, 20 min, room temperature; median fluorescence intensity relative to cells expressing EfmRseP (rMFI), triplicate"}},
  "data": [
    {"substance": "FITC-labeled Enterocin K1 (peptide)", "values": [
      {"measurement": "MIC50 of FITC-EntK1 (growth inhibition, microtiter plate) towards L. plantarum expressing this RseP", "setting": "[1]", "result": 0.6, "unit": "µM"},
      {"measurement": "MIC50 of FITC-EntK1 (growth inhibition, microtiter plate) towards L. plantarum expressing this RseP", "setting": "[2]", "result": 0.15, "unit": "µM"},
      {"measurement": "MIC50 of FITC-EntK1 (growth inhibition, microtiter plate) towards L. plantarum expressing this RseP", "setting": "[3]", "result": "> 20", "unit": "µM"},
      {"measurement": "MIC50 of FITC-EntK1 (growth inhibition, microtiter plate) towards L. plantarum expressing this RseP; footnote: low expression may contribute", "setting": "[4]", "result": "> 20", "unit": "µM"},
      {"measurement": "MIC50 of FITC-EntK1 (growth inhibition, microtiter plate) towards L. plantarum expressing this RseP", "setting": "[5]", "result": "> 20", "unit": "µM"},
      {"measurement": "MIC50 of FITC-EntK1 (growth inhibition, microtiter plate) towards L. plantarum expressing this RseP; footnote: low expression may contribute", "setting": "[6]", "result": "> 20", "unit": "µM"},
      {"measurement": "MIC50 of FITC-EntK1 (growth inhibition, microtiter plate) towards L. plantarum expressing this RseP", "setting": "[7]", "result": "> 20", "unit": "µM"},
      {"measurement": "rMFI % (relative median fluorescence intensity)", "setting": "[8]", "result": 0.41, "unit": "%"},
      {"measurement": "rMFI % (relative median fluorescence intensity)", "setting": "[9]", "result": 84.4, "unit": "%"},
      {"measurement": "rMFI % (relative median fluorescence intensity)", "setting": "[10]", "result": 59, "unit": "%"},
      {"measurement": "rMFI % (relative median fluorescence intensity)", "setting": "[11]", "result": 83.4, "unit": "%"},
      {"measurement": "rMFI % (relative median fluorescence intensity)", "setting": "[12]", "result": 80.6, "unit": "%"},
      {"measurement": "rMFI % (relative median fluorescence intensity)", "setting": "[13]", "result": 54.8, "unit": "%"},
      {"measurement": "rMFI % (relative median fluorescence intensity)", "setting": "[14]", "result": 78, "unit": "%"},
      {"measurement": "rMFI % (relative median fluorescence intensity)", "setting": "[15]", "result": 7.4, "unit": "%"},
      {"measurement": "rMFI % (relative median fluorescence intensity)", "setting": "[16]", "result": 37.6, "unit": "%"},
      {"measurement": "rMFI % (relative median fluorescence intensity)", "setting": "[17]", "result": 100, "unit": "%"},
      {"measurement": "rMFI % (relative median fluorescence intensity)", "setting": "[18]", "result": 0.5, "unit": "%"},
      {"measurement": "rMFI % (relative median fluorescence intensity)", "setting": "[19]", "result": 89.1, "unit": "%"},
      {"measurement": "rMFI % (relative median fluorescence intensity)", "setting": "[20]", "result": 61.6, "unit": "%"},
      {"measurement": "rMFI % (relative median fluorescence intensity)", "setting": "[21]", "result": 65.4, "unit": "%"},
      {"measurement": "rMFI % (relative median fluorescence intensity)", "setting": "[22]", "result": 97.6, "unit": "%"}
    ]}
  ]
}
